Data as given in US20030096349, “N4 virion single-stranded DNA dependent RNA polymerase” (The University of Chicago, published 2003).
Where a chain is given by its changes, count along the chain named.

What was measured:
[1] = molecular target: T1, mini-vRNAP, non-His-tagged (Bacteriophage N4, UniProt Q859P9 SEQ:2-1107); experiment: pulldown; DNA-affinity column; lower yield than SEQ 16; conditions: label: biotin; hairpin
T1 chain: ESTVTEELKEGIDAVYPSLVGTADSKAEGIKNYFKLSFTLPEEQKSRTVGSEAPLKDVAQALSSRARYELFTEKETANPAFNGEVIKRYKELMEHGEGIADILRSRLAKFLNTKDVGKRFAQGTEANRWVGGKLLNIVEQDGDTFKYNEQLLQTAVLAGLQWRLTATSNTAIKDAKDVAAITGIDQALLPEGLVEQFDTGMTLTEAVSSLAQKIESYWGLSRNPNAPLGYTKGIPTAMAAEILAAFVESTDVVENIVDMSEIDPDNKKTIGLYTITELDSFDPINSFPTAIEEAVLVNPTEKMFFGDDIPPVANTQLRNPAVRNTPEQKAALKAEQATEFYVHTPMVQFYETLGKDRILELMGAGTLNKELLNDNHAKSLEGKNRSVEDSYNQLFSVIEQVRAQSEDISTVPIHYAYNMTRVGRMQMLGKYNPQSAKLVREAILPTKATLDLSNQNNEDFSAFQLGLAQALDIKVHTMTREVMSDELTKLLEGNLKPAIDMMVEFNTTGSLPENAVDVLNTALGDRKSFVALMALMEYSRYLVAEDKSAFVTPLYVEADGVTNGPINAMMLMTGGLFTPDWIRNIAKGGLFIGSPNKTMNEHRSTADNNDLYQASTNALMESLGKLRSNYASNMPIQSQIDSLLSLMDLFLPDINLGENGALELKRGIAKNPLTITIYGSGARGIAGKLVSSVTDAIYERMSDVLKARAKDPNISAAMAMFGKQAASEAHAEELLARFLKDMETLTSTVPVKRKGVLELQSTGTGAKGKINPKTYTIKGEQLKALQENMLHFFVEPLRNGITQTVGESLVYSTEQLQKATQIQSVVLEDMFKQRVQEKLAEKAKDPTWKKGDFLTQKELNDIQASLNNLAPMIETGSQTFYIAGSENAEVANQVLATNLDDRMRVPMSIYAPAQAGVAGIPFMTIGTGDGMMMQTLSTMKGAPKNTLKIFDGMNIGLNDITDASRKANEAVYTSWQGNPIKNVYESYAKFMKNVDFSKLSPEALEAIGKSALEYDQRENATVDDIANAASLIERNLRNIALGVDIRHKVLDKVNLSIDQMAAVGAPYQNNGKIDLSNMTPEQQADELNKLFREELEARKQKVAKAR
Procedure: (§1) This property was used for purification of non-his tagged mini-vRNAP (SEQ ID NO:4) on a DNA-affinity column. The column was prepared by adsorbing a 5′ biotinylated N4 promoter-containing DNA oligonucleotide onto the matrix of a 1 ml HiTrap Streptavidin column (Pharmacia/Amersham Cat.#17-5112-01) according to the manufacturer's instructions. A debris-free sonicate of bacterial cells expressing mini-vRNAP was passed through the column. […] Nucleases in the extract are inhibited by addition of 2 mM EDTA. After washing the column, mini-vRNAP was eluted with warm (25° C.) water; the elution temperature was raised from 4° C. to 25° C. to increase mini-vRNAP recovery. For complete elution, the temperature can be raised up to 43° C. without significant change in the quality of the preparation. Elution under these conditions occurs due to the removal of metal ions and consequent melting of the promoter hairpin and dissociation of mini-vRNAP. Different DNA oligonucleotides containing variants of the P2 promoter (SEQ ID NOS:16-19), were used in DNA-affinity columns and tested in mini-vRNAP affinity purification. The best yield was achieved using the DNA oligonucleotide of SEQ ID NO:16. […]

[2] = molecular target: T2, mini-vRNAP (N4 virion RNA polymerase central domain) (Bacteriophage N4, UniProt Q859P9 SEQ:38-1143); experiment: filter; wild type affinity; crosslinks; conditions: tags: N-terminal His6 (pBAD B); TALON and MonoQ; label: 32P; hairpin
T2 chain: T1 chain
From the text: To study the sequence determinants of promoter binding, 20 base-long promoter oligonucleotides, containing the wild type vRNAP promoter P2 sequence and substituted at every position with a single 5-Iodo-dU, were used. Whenever substitutions were made in the stem, the corresponding pairing base was changed to A. These oligonucleotides were ³²P end-labeled and used to determine the enzyme's affinity for promoter DNAs by a filter binding assay and the ability to crosslink to mini-vRNAP upon UV irradiation at 320 nm.

[3] = molecular target: T2, mini-vRNAP (N4 virion RNA polymerase …); experiment: filter; no binding when loop cannot form; conditions: tags: N-terminal His6 (pBAD B), TALON and MonoQ
Procedure: (§2) The effect of changes in the stem length of the hairpin on the ability of mini-vRNAP to bind P2 promoter DNA was analyzed. […] The stem can be shortened by two base pairs without change in the binding affinity. […] No binding is observed if one more nucleotide is removed and the loop cannot form.

[4] = molecular target: T2, mini-vRNAP (N4 virion RNA polymerase …); experiment: filter; two orders of magnitude reduction; conditions: tags: N-terminal His6 (pBAD B); TALON and MonoQ; hairpin, 8 bp stem
[5] = molecular target: T2, mini-vRNAP (N4 virion RNA polymerase …); experiment: filter; range given for two or one remaining loop-closing bp; conditions: tags: N-terminal His6 (pBAD B), TALON and MonoQ, hairpin
Procedure: as §2

mini-vRNAP Y678F = molecular target: T3, mini-vRNAP Y678F (Bacteriophage N4, UniProt Q859P9 SEQ:38-1143); experiment: UV crosslinking as well as wild type enzyme; conditions: tags: N-terminal His6; label: 32P; hairpin
T3 chain: T1 chain with Y678F

[6] = molecular target: T1, mini-vRNAP, non-His-tagged; experiment: pulldown; DNA-affinity column, pH 5-9, 50 mM-2 M NaCl, 2 mM EDTA in extract; best yield; conditions: label: biotin; hairpin
Procedure: as §1

[7] = molecular target: T1, mini-vRNAP, non-His-tagged; experiment: pulldown; DNA-affinity column; elutes at lower temperature than SEQ 16; conditions: label: biotin
Procedure: as §1

[8] = molecular target: T2, mini-vRNAP (N4 virion RNA polymerase …); experiment: filter; stem lengthened by two bp, affinity unchanged; conditions: tags: N-terminal His6 (pBAD B); TALON and MonoQ; hairpin, 7 bp stem
[9] = molecular target: T2, mini-vRNAP (N4 virion RNA polymerase …); experiment: filter; stem shortened by two bp, affinity unchanged; conditions: tags: N-terminal His6 (pBAD B); TALON and MonoQ; hairpin, 3 bp stem
Procedure: as §2

GGCCATCCATTACTTCATCCAAAAGAAGCGGAGCTTC (ssDNA, 5' biotin) [P2 affinity oligo SEQ 17]: binds [1].

TCCAAAAGAAGCGGAGCTTC (ssDNA, 5-iodo-dU at +1) [P2 20-mer 5-iodo-dU at +1]: binds [2].

TCCAAAAGAAGCGGA (ssDNA) [P2 without stem]: no binding [3].

With TCCAAAAGAAGCGGAGCTTCTTT (ssDNA, [none]) [P2 stem lengthened, base paired to -2] the binding signal [4] was roughly 100 fold lower affinity.

Binder TCCAAAAGAAGCGGAG (ssDNA) [P2 stem shortened to 1 bp] has a Kd ([5]; 1 loop-closing bp) of 4.47 nM.

GGATCCAAAAGAAGCGGAGCTTC (ssDNA, 5' biotin) [P2 affinity oligo SEQ 18]: binds [1].

TCCAAAAGAAGCGGAGC (ssDNA) [P2 stem shortened to 2 bp] gave a Kd ([5]; 2 bp stem) of 4.47 nM.

TCCAAAAGAAGCGGAGCTTC (ssDNA, 5-iodo-dU at +3) [P2 20-mer 5-iodo-dU at +3]: binds [2]; binds (mini-vRNAP Y678F).

GGCATTACTTCATCCAAAAGAAGCGGAGCTTC (ssDNA, 5' biotin) [P2 affinity oligo SEQ 16]: binds [6].

GGCATTACTTCATCCAAAAGAAGCTGAGCTTC (ssDNA, 5' biotin) [P2 affinity oligo SEQ 19 (loop/stem variant)]: binds [7].

GGCATTACTTCATCCAAAAGAAGCGGAGC (ssDNA, 5' biotin) [P2 affinity oligo SEQ 20 (shortened stem)]: binds [7].

TCCAAAAGAAGCGGAGCTTC (ssDNA, 5-iodo-dU at +2) [P2 20-mer 5-iodo-dU at +2]: binds [2].

Binder TCCAAAAGAAGCGGAGCTTCTT (ssDNA, [none]) [P2 stem lengthened to 7 bp] has a Kd [8] of roughly 1 nM.

TCCAAAAGAAGCGGAGCTTC (ssDNA, 5-iodo-dU at -11 (loop centre)) [P2 20-mer 5-iodo-dU at -11]: binds (mini-vRNAP Y678F).

In the case of TCCAAAAGAAGCGGAGCT (ssDNA) [P2 stem shortened to 3 bp], the Kd [9] is reported as roughly 1 nM.
